Patent US20230212549A1 (3B PHARMACEUTICALS, published 2023)
Numbered stars: 1 amine (or outer) side, 2 acyl side, 3 side chain; on linkers, the order of the positions; unused ones are H or OH. Bridge positions count the residues as written; N and C are the ends. Square brackets hold non-standard residues; d marks the D form. Primed or numbered codes have the meaning given here. * marks the point of attachment. Ttds″ = 1,13-diamino-4,7,10-trioxatridecan-succinamic acid spacer, O=C(CCC(=O)[*:2])NCCCOCCOCCOCCCN[*:1]; DOTA = O=C(O)CN1CCN(CC(=O)O)CCN(CC(=O)*)CCN(CC(=O)O)CC1; mXylylene = c1cc(C[*:1])cc(C[*:2])c1; NMeF = CN[C@@H](Cc1ccccc1)C(=O)O; αMeF = C[C@](N)(Cc1ccccc1)C(=O)O; 4Pal = N[C@@H](Cc1ccncc1)C(=O)O; Tic = O=C(O)[C@@H]1Cc2ccccc2CN1; 2Thi = N[C@@H](Cc1cccs1)C(=O)O; Aic = NC1(C(=O)O)Cc2ccccc2C1; Hexanoyl = CCCCCC(=O)*

How the values were obtained:
[1] = target: T1, fibroblast activation protein (FAP) on FAP-expressing human WI-38 fibroblasts (human, UniProt Q12884 1-760); test: competitive FACS, WI-38 cells, vs Cy5 tracer m3; A = pIC50 >8.0
T1 construct: also called human FAP

[2] = target: Recombinant human FAP (R&D systems, #3715-SE) (human, UniProt Q12884 26-760); test: cell-based or functional assay

pIC50 Category (FACS) [1]	pIC50 Category (Activity) [2]	Binder
> 8 pIC50	> 8 pIC50	Ac-MCPPTEFCDHFR[dD]-NH2 (linker 2-8 via mXylylene; SMILES CSCC[C@H](NC(C)=O)C(=O)N[C@H]1CSCc2cccc(c2)CSC[C@@H](C(=O)N[C@@H](CC(=O)O)C(=O)N[C@@H](Cc2c[nH]cn2)C(=O)N[C@@H](Cc2ccccc2)C(=O)N[C@@H](CCCNC(=N)N)C(=O)N[C@H](CC(=O)O)C(N)=O)NC(=O)[C@H](Cc2ccccc2)NC(=O)[C@H](CCC(=O)O)NC(=O)[C@H]([C@@H](C)O)NC(=O)[C@@H]2CCCN2C(=O)[C@@H]2CCCN2C1=O, also called 3BP-3213) [Ac-Met-[Cys(3MeBn)-Pro-Pro-Thr-Glu-Phe-Cys]-Asp-His-Phe-Arg-asp-NH2]
> 8 pIC50	> 8 pIC50	Ac-MCPPTEFCDH[αMeF]RD-NH2 (linker 2-8 via mXylylene; SMILES CSCC[C@H](NC(C)=O)C(=O)N[C@H]1CSCc2cccc(c2)CSC[C@@H](C(=O)N[C@@H](CC(=O)O)C(=O)N[C@@H](Cc2c[nH]cn2)C(=O)N[C@@](C)(Cc2ccccc2)C(=O)N[C@@H](CCCNC(=N)N)C(=O)N[C@@H](CC(=O)O)C(N)=O)NC(=O)[C@H](Cc2ccccc2)NC(=O)[C@H](CCC(=O)O)NC(=O)[C@H]([C@@H](C)O)NC(=O)[C@@H]2CCCN2C(=O)[C@@H]2CCCN2C1=O, also called 3BP-3203) [Ac-Met-[Cys(3MeBn)-Pro-Pro-Thr-Glu-Phe-Cys]-Asp-His-Amf-Arg-Asp-NH2]
> 8 pIC50	> 8 pIC50	Ac-MCPPTEFCDHXRD-NH2 (linker 2-8 via mXylylene; not fully specified (residue 11); printed as Ac-Met-[Cys(3MeBn)-Pro-Pro-Thr-Glu-Phe-Cys]-Asp-His-Mpa-Arg-Asp-NH2, also called 3BP-3192) [Ac-Met-[Cys(3MeBn)-Pro-Pro-Thr-Glu-Phe-Cys]-Asp-His-Mpa-Arg-Asp-NH2]
> 8 pIC50	> 8 pIC50	Ac-MCPPTEFCDHF[dR]D-NH2 (linker 2-8 via mXylylene; SMILES CSCC[C@H](NC(C)=O)C(=O)N[C@H]1CSCc2cccc(c2)CSC[C@@H](C(=O)N[C@@H](CC(=O)O)C(=O)N[C@@H](Cc2c[nH]cn2)C(=O)N[C@@H](Cc2ccccc2)C(=O)N[C@H](CCCNC(=N)N)C(=O)N[C@@H](CC(=O)O)C(N)=O)NC(=O)[C@H](Cc2ccccc2)NC(=O)[C@H](CCC(=O)O)NC(=O)[C@H]([C@@H](C)O)NC(=O)[C@@H]2CCCN2C(=O)[C@@H]2CCCN2C1=O, also called 3BP-3212) [Ac-Met-[Cys(3MeBn)-Pro-Pro-Thr-Glu-Phe-Cys]-Asp-His-Phe-arg-Asp-NH2]
> 8 pIC50	> 8 pIC50	Ac-[dM]CPPTEFCDHFRD-NH2 (linker 2-8 via mXylylene; SMILES CSCC[C@@H](NC(C)=O)C(=O)N[C@H]1CSCc2cccc(c2)CSC[C@@H](C(=O)N[C@@H](CC(=O)O)C(=O)N[C@@H](Cc2c[nH]cn2)C(=O)N[C@@H](Cc2ccccc2)C(=O)N[C@@H](CCCNC(=N)N)C(=O)N[C@@H](CC(=O)O)C(N)=O)NC(=O)[C@H](Cc2ccccc2)NC(=O)[C@H](CCC(=O)O)NC(=O)[C@H]([C@@H](C)O)NC(=O)[C@@H]2CCCN2C(=O)[C@@H]2CCCN2C1=O, also called 3BP-3187) [Ac-met-[Cys(3MeBn)-Pro-Pro-Thr-Glu-Phe-Cys]-Asp-His-Phe-Arg-Asp-NH2]
> 8 pIC50	> 8 pIC50	Ac-MCPPTEFCDH[Aic]RD-NH2 (linker 2-8 via mXylylene; SMILES CSCC[C@H](NC(C)=O)C(=O)N[C@H]1CSCc2cccc(c2)CSC[C@@H](C(=O)N[C@@H](CC(=O)O)C(=O)N[C@@H](Cc2c[nH]cn2)C(=O)NC2(C(=O)N[C@@H](CCCNC(=N)N)C(=O)N[C@@H](CC(=O)O)C(N)=O)Cc3ccccc3C2)NC(=O)[C@H](Cc2ccccc2)NC(=O)[C@H](CCC(=O)O)NC(=O)[C@H]([C@@H](C)O)NC(=O)[C@@H]2CCCN2C(=O)[C@@H]2CCCN2C1=O, also called 3BP-3190) [Ac-Met-[Cys(3MeBn)-Pro-Pro-Thr-Glu-Phe-Cys]-Asp-His-Aic-Arg-Asp-NH2]
> 8 pIC50	> 8 pIC50	Ac-MCPPTEFCD[dH]FRD-NH2 (linker 2-8 via mXylylene; SMILES CSCC[C@H](NC(C)=O)C(=O)N[C@H]1CSCc2cccc(c2)CSC[C@@H](C(=O)N[C@@H](CC(=O)O)C(=O)N[C@H](Cc2c[nH]cn2)C(=O)N[C@@H](Cc2ccccc2)C(=O)N[C@@H](CCCNC(=N)N)C(=O)N[C@@H](CC(=O)O)C(N)=O)NC(=O)[C@H](Cc2ccccc2)NC(=O)[C@H](CCC(=O)O)NC(=O)[C@H]([C@@H](C)O)NC(=O)[C@@H]2CCCN2C(=O)[C@@H]2CCCN2C1=O, also called 3BP-3210) [Ac-Met-[Cys(3MeBn)-Pro-Pro-Thr-Glu-Phe-Cys]-Asp-his-Phe-Arg-Asp-NH2]
> 8 pIC50	> 8 pIC50	Ac-MCPPTE[2Thi]CDHFRD-NH2 (linker 2-8 via mXylylene; SMILES CSCC[C@H](NC(C)=O)C(=O)N[C@H]1CSCc2cccc(c2)CSC[C@@H](C(=O)N[C@@H](CC(=O)O)C(=O)N[C@@H](Cc2c[nH]cn2)C(=O)N[C@@H](Cc2ccccc2)C(=O)N[C@@H](CCCNC(=N)N)C(=O)N[C@@H](CC(=O)O)C(N)=O)NC(=O)[C@H](Cc2cccs2)NC(=O)[C@H](CCC(=O)O)NC(=O)[C@H]([C@@H](C)O)NC(=O)[C@@H]2CCCN2C(=O)[C@@H]2CCCN2C1=O, also called 3BP-3193) [Ac-Met-[Cys(3MeBn)-Pro-Pro-Thr-Glu-Thi-Cys]-Asp-His-Phe-Arg-Asp-NH2]
> 8 pIC50	> 8 pIC50	Ac-MCPPTEFCDHFR-NH2 (linker 2-8 via mXylylene; SMILES CSCC[C@H](NC(C)=O)C(=O)N[C@H]1CSCc2cccc(c2)CSC[C@@H](C(=O)N[C@@H](CC(=O)O)C(=O)N[C@@H](Cc2c[nH]cn2)C(=O)N[C@@H](Cc2ccccc2)C(=O)N[C@@H](CCCNC(=N)N)C(N)=O)NC(=O)[C@H](Cc2ccccc2)NC(=O)[C@H](CCC(=O)O)NC(=O)[C@H]([C@@H](C)O)NC(=O)[C@@H]2CCCN2C(=O)[C@@H]2CCCN2C1=O, also called 3BP-3200) [Ac-Met-[Cys(3MeBn)-Pro-Pro-Thr-Glu-Phe-Cys]-Asp-His-Phe-Arg-NH2]
> 8 pIC50	> 8 pIC50	Hexanoyl-CPPTEFCDH[NMeF]R[Ttds″]K(DOTA)-NH2 (linker 1-7 via mXylylene; SMILES CCCCCC(=O)N[C@H]1CSCc2cccc(c2)CSC[C@@H](C(=O)N[C@@H](CC(=O)O)C(=O)N[C@@H](Cc2c[nH]cn2)C(=O)N(C)[C@@H](Cc2ccccc2)C(=O)N[C@@H](CCCNC(=N)N)C(=O)NCCCOCCOCCOCCCNC(=O)CCC(=O)N[C@@H](CCCCNC(=O)CN2CCN(CC(=O)O)CCN(CC(=O)O)CCN(CC(=O)O)CC2)C(N)=O)NC(=O)[C@H](Cc2ccccc2)NC(=O)[C@H](CCC(=O)O)NC(=O)[C@H]([C@@H](C)O)NC(=O)[C@@H]2CCCN2C(=O)[C@@H]2CCCN2C1=O, also called 3BP-3275) [Hex-[Cys(3MeBn)-Pro-Pro-Thr-Glu-Phe-Cys]-Asp-His-Nmf-Arg-Ttds-Lys(DOTA)-NH2]
> 8 pIC50	> 8 pIC50	Ac-MCPPTEFCDH[4Pal]RD-NH2 (linker 2-8 via mXylylene, also called 3BP-3191) [Ac-Met-[Cys(3MeBn)-Pro-Pro-Thr-Glu-Phe-Cys]-Asp-His-Ppa-Arg-Asp-NH2]
> 8 pIC50	> 8 pIC50	Ac-MCPPTEFCDH[NMeF]RD-NH2 (linker 2-8 via mXylylene; SMILES CSCC[C@H](NC(C)=O)C(=O)N[C@H]1CSCc2cccc(c2)CSC[C@@H](C(=O)N[C@@H](CC(=O)O)C(=O)N[C@@H](Cc2c[nH]cn2)C(=O)N(C)[C@@H](Cc2ccccc2)C(=O)N[C@@H](CCCNC(=N)N)C(=O)N[C@@H](CC(=O)O)C(N)=O)NC(=O)[C@H](Cc2ccccc2)NC(=O)[C@H](CCC(=O)O)NC(=O)[C@H]([C@@H](C)O)NC(=O)[C@@H]2CCCN2C(=O)[C@@H]2CCCN2C1=O, also called 3BP-3188) [Ac-Met-[Cys(3MeBn)-Pro-Pro-Thr-Glu-Phe-Cys]-Asp-His-Nmf-Arg-Asp-NH2]
> 8 pIC50	> 8 pIC50	Ac-CPPTEFCDHFRD-NH2 (linker 1-7 via mXylylene; SMILES CC(=O)N[C@H]1CSCc2cccc(c2)CSC[C@@H](C(=O)N[C@@H](CC(=O)O)C(=O)N[C@@H](Cc2c[nH]cn2)C(=O)N[C@@H](Cc2ccccc2)C(=O)N[C@@H](CCCNC(=N)N)C(=O)N[C@@H](CC(=O)O)C(N)=O)NC(=O)[C@H](Cc2ccccc2)NC(=O)[C@H](CCC(=O)O)NC(=O)[C@H]([C@@H](C)O)NC(=O)[C@@H]2CCCN2C(=O)[C@@H]2CCCN2C1=O, also called 3BP-3202) [Ac-[Cys(3MeBn)-Pro-Pro-Thr-Glu-Phe-Cys]-Asp-His-Phe-Arg-Asp-NH2]
> 8 pIC50	> 8 pIC50	Ac-M[dC]PPTEFCDHFRD-NH2 (linker 2-8 via mXylylene; SMILES CSCC[C@H](NC(C)=O)C(=O)N[C@@H]1CSCc2cccc(c2)CSC[C@@H](C(=O)N[C@@H](CC(=O)O)C(=O)N[C@@H](Cc2c[nH]cn2)C(=O)N[C@@H](Cc2ccccc2)C(=O)N[C@@H](CCCNC(=N)N)C(=O)N[C@@H](CC(=O)O)C(N)=O)NC(=O)[C@H](Cc2ccccc2)NC(=O)[C@H](CCC(=O)O)NC(=O)[C@H]([C@@H](C)O)NC(=O)[C@@H]2CCCN2C(=O)[C@@H]2CCCN2C1=O, also called 3BP-3175) [Ac-Met-[cys(3MeBn)-Pro-Pro-Thr-Glu-Phe-Cys]-Asp-His-Phe-Arg-Asp-NH2]
> 8 pIC50	> 8 pIC50	Ac-MCPPTEFCDH[Tic]RD-NH2 (linker 2-8 via mXylylene; SMILES CSCC[C@H](NC(C)=O)C(=O)N[C@H]1CSCc2cccc(c2)CSC[C@@H](C(=O)N[C@@H](CC(=O)O)C(=O)N[C@@H](Cc2c[nH]cn2)C(=O)N2Cc3ccccc3C[C@H]2C(=O)N[C@@H](CCCNC(=N)N)C(=O)N[C@@H](CC(=O)O)C(N)=O)NC(=O)[C@H](Cc2ccccc2)NC(=O)[C@H](CCC(=O)O)NC(=O)[C@H]([C@@H](C)O)NC(=O)[C@@H]2CCCN2C(=O)[C@@H]2CCCN2C1=O, also called 3BP-3189) [Ac-Met-[Cys(3MeBn)-Pro-Pro-Thr-Glu-Phe-Cys]-Asp-His-Tic-Arg-Asp-NH2]
> 8 pIC50	> 8 pIC50	Ac-MCPPTEFCDH[dF]RD-NH2 (linker 2-8 via mXylylene; SMILES CSCC[C@H](NC(C)=O)C(=O)N[C@H]1CSCc2cccc(c2)CSC[C@@H](C(=O)N[C@@H](CC(=O)O)C(=O)N[C@@H](Cc2c[nH]cn2)C(=O)N[C@H](Cc2ccccc2)C(=O)N[C@@H](CCCNC(=N)N)C(=O)N[C@@H](CC(=O)O)C(N)=O)NC(=O)[C@H](Cc2ccccc2)NC(=O)[C@H](CCC(=O)O)NC(=O)[C@H]([C@@H](C)O)NC(=O)[C@@H]2CCCN2C(=O)[C@@H]2CCCN2C1=O, also called 3BP-3211) [Ac-Met-[Cys(3MeBn)-Pro-Pro-Thr-Glu-Phe-Cys]-Asp-His-phe-Arg-Asp-NH2]
